Measurements: US12123042

Tested on: cytochrome C

Chain of S. rebaudiana CPR1 (cytochrome P450 reductase) (chain, as listed by the source): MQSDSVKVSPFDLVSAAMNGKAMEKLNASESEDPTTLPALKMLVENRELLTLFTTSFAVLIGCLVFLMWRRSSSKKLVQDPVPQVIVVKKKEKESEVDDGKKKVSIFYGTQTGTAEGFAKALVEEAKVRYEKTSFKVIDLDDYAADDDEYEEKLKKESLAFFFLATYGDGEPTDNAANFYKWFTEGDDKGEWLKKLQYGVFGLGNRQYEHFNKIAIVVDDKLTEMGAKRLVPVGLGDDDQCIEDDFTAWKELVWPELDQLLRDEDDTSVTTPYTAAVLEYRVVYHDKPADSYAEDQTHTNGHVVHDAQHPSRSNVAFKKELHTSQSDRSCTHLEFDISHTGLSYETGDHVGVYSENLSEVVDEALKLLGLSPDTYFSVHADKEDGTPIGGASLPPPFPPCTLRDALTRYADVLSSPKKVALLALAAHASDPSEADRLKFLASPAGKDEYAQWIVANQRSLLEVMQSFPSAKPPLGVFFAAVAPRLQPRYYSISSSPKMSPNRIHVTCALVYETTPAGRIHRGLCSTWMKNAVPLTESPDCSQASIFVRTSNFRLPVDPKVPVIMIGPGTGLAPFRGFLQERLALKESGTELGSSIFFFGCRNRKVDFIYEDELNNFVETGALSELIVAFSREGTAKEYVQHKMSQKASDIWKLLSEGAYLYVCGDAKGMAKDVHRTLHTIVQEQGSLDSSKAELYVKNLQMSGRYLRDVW

S. rebaudiana CPR1 (cytochrome P450 reductase)
CPR activity (cytochrome C reductase assay, increase in absorbance at 550 nm, units/mg microsomal protein): 7- and 14-fold higher activity, respectively, compared to the negative control
